Test results from patent US20260146107A1 (ALLIGATOR BIOSCIENCE, published 2026).
Positions count from the first letter of the chain named. Values belong to the binder of their own block, whether it stands above or below them.

Experiments:
[1] = molecular target: T1, human CEACAM5, recombinant (R&D Systems #4128-CM-050) (human, UniProt P06731 35-685); experiment: Octet BLI, captured bsAb, monomeric CEACAM5 in solution, 1:1 fit
T1 construct: Bought; coated in ELISA and used as monomeric analyte in Octet; also called hCEACAM-5; Human CEACAM5-His; not shown: His tag
T1 sequence (looked up): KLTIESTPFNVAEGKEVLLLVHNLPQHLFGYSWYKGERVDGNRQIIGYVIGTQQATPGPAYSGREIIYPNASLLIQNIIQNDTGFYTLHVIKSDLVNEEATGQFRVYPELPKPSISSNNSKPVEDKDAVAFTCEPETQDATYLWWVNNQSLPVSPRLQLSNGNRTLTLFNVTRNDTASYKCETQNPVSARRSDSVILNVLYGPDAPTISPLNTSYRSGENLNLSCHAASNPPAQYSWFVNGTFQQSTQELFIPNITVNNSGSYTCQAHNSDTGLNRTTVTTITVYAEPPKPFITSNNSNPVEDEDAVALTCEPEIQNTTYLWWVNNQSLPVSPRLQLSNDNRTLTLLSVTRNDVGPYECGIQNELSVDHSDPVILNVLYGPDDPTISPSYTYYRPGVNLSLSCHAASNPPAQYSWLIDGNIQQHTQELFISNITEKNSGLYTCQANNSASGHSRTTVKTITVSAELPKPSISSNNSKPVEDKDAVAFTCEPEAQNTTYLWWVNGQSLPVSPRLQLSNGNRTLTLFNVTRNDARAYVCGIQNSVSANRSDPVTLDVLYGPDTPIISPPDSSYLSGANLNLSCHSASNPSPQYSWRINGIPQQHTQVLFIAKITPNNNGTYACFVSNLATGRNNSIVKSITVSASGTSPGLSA
Description: (§1) Kinetic measurements were performed in the Octet RED96 platform using several different setups. […] Monomeric human CD40-His-Avi tag (Acro Biosystems #CD0-H5228), monomeric Human CEACAM5-His (R&D Systems #4128-CM-050) or monomeric Cynomolgus CEACAM5-His (Sino Biological #90891-C08H) were ½ serially diluted in 1× kinetic buffer (Sartorius) starting at 500 nM or 100 nM. […] Binding kinetics was studied in 1× kinetic buffer where association was allowed for 100 sec, 300 sec or 600 sec followed by dissociation for 100 sec, 300 sec or 3600 sec. Sensor tips were regenerated with 10 mM Glycine pH 1.7. Data generated were referenced by subtracting blank or parallel buffer blank, the baseline was aligned to the y-axis, inter-step correction by alignment against dissociation was performed and the data was smoothed by Savitzky-Golay filter in the data analysis software (v9.0.0.14). The processed data was fitted using a 1:1 Langmuir binding model with R² or X² as a measurement of fitting accuracy.
Association was measured for 100 sec and dissociation was measured for 100 sec.

[2] = molecular target: T1, human CEACAM5, recombinant (R&D Systems …); experiment: ELISA, antigen coated at 0.5 µg/mL, bsAb titrated, anti-human kappa-HRP, luminescence
Description: (§2) 96-well plates were coated with 0.5 μg/mL antigen, hCEACAM-1 (2244-CM-050, R&D Systems), hCEACAM-5 (4128-CM-050, R&D Systems), hCEACAM-6 (3934-CM-050, R&D Systems) or CEACAM-8 (9639-CM-050, R&D Systems) in PBS over night at 4° C. After washing in PBS/0.05% Tween 20 (PBST), the plates were blocked with PBST, 2% BSA for at least 30 minutes at room temperature before a second round of washing. RUBY bsAbs, diluted in PBST, 0.5% BSA, were then added and allowed to bind for at least 1 hour at room temperature. […] Finally, a final round of washing was performed and bound complexes detected using SuperSignal Pico Luminescent as substrate and luminescence signals were measured using Fluostar Optima.

[3] = molecular target: human CD40 expressed on cells (CD40 reporter cells, HEK Blue CD40L cells, primary B cells, tumour APCs) (human, UniProt P25942 21-277); experiment: cell-based or functional assay
Sequence of human CD40 expressed on cells (CD40 reporter cells, HEK Blue CD40L cells, primary B cells, tumour APCs) (P25942 21-277): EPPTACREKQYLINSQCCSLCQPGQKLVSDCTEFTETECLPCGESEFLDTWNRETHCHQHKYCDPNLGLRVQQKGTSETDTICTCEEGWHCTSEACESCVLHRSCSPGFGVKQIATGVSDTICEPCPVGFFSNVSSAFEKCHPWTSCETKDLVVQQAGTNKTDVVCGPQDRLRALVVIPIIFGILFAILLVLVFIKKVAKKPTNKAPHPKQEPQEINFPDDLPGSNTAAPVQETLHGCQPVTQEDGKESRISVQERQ

[4] = molecular target: T1, human CEACAM5, recombinant (R&D Systems …); experiment: Octet BLI, captured bsAb, soluble antigen, 1:1 fit
Description: as §1
Association was measured for 100 sec and dissociation for 300 sec.

[5] = molecular target: T1, human CEACAM5, recombinant (R&D Systems …); experiment: dual-target ELISA: hCEACAM-5 coated, bsAb titrated, detected with biotinylated hCD40-muIg and streptavidin-HRP, luminescence; signal needs both targets bound
Description: as §2

[6] = molecular target: T2, biotinylated human CEACAM5-His (Acro Biosystems #CE5-H82E0) (human, UniProt P06731 35-685, biotinylated (site not stated)); experiment: Octet BLI, captured CEACAM5-biotin, bsAb in solution, 1:1 fit
T2 construct: also called CEACAM5-biotin; captured human CEACAM5-biotin; not shown: His tag
T2 sequence (looked up): T1 sequence (looked up)
Description: as §1
Association was measured for 100 sec and dissociation measured for 100 sec.

Kd [1]: < 0.001 nM
koff [1]: < 1e-07 s⁻¹
kon [1]: 24000 M⁻¹ s⁻¹
EC50 (read off the curve) [2]: ~3 nM
B1: Multi48 (bispecific antibody)
heavy 1: not shown
light: DIQMTQSPSSLSASVGDRVTITCRASQSISSYLNWYQEKPGKAPKLLIYAASSLQSGVPSRFSGSGSGTDFTLTISSLQPEDFATYYCQQYGRNPPTFGQGTKLEIKRTVAAPSVFIFPPSDEQLKSGTASVVCYLNNFYPREAKVQWKVDNALQSGNSQESVTEQDSKDSTYSLWSTLTLSKADYEKHKVYACEVTHQGLSSPVTKSFNRGEC
heavy 2: EVQLLESGGGLVQPGGSLRLSCAASGFTFGDHAMSWVREAPGKGLEWVSAISGYGHSTGYADSVKGRFTISRDNSKNTLYLQMNSLRAEDTAVYYCARNHYRVGLDYWGQGTLVTVSSASTKGPSVFPLAPSSKSTSGGTAALGCLVKDYFPEPVTVSWNSGALTSGVHTFPAVLQSSGLYSLTSVVEVPSSSLGTQTYICNVNHKPSNTKVDKKVEPKSC
notes: Optimised RUBY format, CD40xCEACAM5

Kd [1]: < 0.001 nM
koff [1]: < 1e-07 s⁻¹
kon [1]: 28000 M⁻¹ s⁻¹
EC50 (read off the curve) [2]: ~3 nM
B2: Multi49 (bispecific antibody)
heavy 1: not shown
light: B1 light
heavy 2: EVQLLESGGGLVQPGGSLRLSCAASGFTFYDHAMSWVREAPGKGLEWVSAISGSYGSTGYADSVKGRFTISRDNSKNTLYLQMNSLRAEDTAVYYCARWGGWAGDIDYWGQGTLVTVSSASTKGPSVFPLAPSSKSTSGGTAALGCLVKDYFPEPVTVSWNSGALTSGVHTFPAVLQSSGLYSLTSVVEVPSSSLGTQTYICNVNHKPSNTKVDKKVEPKSC
notes: as for B1

EC50 of SEAP release, HEK Blue CD40L reporter cells, bsAb crosslinked to CHO-CEACAM5 cells, 0 Raji sink cells/well [3]: 0.03 nM
EC50 of SEAP release, same assay, 10 000 Raji sink cells/well [3]: 0.05 nM
EC50 of SEAP release, same assay, 30 000 Raji sink cells/well [3]: 0.08 nM
EC50 of SEAP release, same assay, 90 000 Raji sink cells/well [3]: 0.23 nM
Kd [4]: < 0.001 nM
koff [4]: < 1e-07 s⁻¹
kon [4]: 520000 M⁻¹ s⁻¹
Kd [1]: 1.8 nM
koff [1]: 0.00042 s⁻¹
kon [1]: 240000 M⁻¹ s⁻¹
EC50 (read off the curve) [5]: ~0.3 nM
B3: AC_05339 (bispecific antibody)
heavy 1: not shown
light: DIQMTQSPSSLSASVGDRVTITCRASQSISSYLNWYQEKPGKAPKLLIYAASSLQSGVPSRFSGSGSGTDFTLTISSLQPEDFATYYCQQAGNPHTFGQGTKLEIKRTVAAPSVFIFPPSDEQLKSGTASVVCYLNNFYPREAKVQWKVDNALQSGNSQESVTEQDSKDSTYSLWSTLTLSKADYEKHKVYACEVTHQGLSSPVTKSFNRGEC
heavy 2: EVQLLESGGGLVQPGGSLRLSCAASGFTFSTYGMHWVREAPGKGLEWLSYISGGSSYIFYADSVRGRFTISRDNSENALYLQMNSLRAEDTAVYYCARILRGGSGMDLWGQGTLVTVSSASTKGPSVFPLAPSSKSTSGGTAALGCLVKDYFPEPVTVSWNSGALTSGVHTFPAVLQSSGLYSLSSVVEVPSSSLGTQTYICNVNHKPSNTKVDKKVEPKSC
notes: RUBY format, CEACAM5xCD40; also called AC_5339

EC50 of SEAP release, HEK Blue CD40L reporter cells, bsAb crosslinked to CHO-CEACAM5 cells, 0 Raji sink cells/well [3]: 0.02 nM
EC50 of SEAP release, same assay, 10 000 Raji sink cells/well [3]: 0.05 nM
EC50 of SEAP release, same assay, 30 000 Raji sink cells/well [3]: 0.08 nM
EC50 of SEAP release, same assay, 90 000 Raji sink cells/well [3]: 0.16 nM
Kd [6]: < 0.001 nM
koff [6]: < 1e-07 s⁻¹
kon [6]: 150000 M⁻¹ s⁻¹
Kd [1]: 13 nM
koff [1]: 0.0023 s⁻¹
kon [1]: 180000 M⁻¹ s⁻¹
EC50 (read off the curve) [2]: ~0.5 nM
EC50 (read off the curve) [5]: ~0.8 nM
B4: Multi44 (bispecific antibody)
heavy 1: not shown
light: B3 light with A91W, N93Y, P94L, H95L
heavy 2: B3 heavy 2 with R65K, E76K, A78T, S185T
notes: Optimised RUBY format, CEACAM5xCD40
